Patent publication US20050074865

Molecular target: recombinant human TNFα (RDI) (UniProt P01375)
Sequence (P01375 77-233): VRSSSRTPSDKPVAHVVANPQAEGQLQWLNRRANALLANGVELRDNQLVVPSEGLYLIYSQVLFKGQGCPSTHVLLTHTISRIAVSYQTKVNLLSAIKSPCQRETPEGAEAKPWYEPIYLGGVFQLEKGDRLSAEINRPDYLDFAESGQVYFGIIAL

Enterokinase, sequence (P98072 2-800): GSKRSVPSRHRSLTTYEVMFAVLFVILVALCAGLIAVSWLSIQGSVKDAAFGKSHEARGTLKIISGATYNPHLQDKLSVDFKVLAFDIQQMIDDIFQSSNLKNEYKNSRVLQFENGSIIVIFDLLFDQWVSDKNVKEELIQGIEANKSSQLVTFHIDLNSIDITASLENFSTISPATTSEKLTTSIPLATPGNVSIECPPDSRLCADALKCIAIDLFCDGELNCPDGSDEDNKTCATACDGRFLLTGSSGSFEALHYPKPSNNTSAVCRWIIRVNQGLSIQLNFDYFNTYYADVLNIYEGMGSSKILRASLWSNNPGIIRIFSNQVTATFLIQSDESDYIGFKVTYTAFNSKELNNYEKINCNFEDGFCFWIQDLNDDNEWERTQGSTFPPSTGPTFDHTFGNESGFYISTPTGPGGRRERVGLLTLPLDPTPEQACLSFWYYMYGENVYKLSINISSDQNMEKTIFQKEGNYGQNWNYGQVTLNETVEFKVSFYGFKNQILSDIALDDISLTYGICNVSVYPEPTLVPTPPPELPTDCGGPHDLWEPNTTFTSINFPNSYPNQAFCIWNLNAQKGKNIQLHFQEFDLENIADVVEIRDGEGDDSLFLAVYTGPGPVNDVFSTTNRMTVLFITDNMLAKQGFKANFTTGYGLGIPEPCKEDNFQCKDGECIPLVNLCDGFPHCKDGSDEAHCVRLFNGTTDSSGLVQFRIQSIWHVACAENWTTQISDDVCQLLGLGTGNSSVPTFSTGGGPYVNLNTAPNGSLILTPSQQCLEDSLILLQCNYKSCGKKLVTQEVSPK
Enterokinase, sequence (P98072 801-1035): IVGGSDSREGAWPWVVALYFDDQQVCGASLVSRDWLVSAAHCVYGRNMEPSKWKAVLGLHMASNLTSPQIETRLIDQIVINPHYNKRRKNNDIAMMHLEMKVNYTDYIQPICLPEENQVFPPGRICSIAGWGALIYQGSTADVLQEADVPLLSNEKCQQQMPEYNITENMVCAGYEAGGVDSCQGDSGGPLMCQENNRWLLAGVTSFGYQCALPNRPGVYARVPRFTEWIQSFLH

| Substance | inactivation of TNFα bioactivity, L929 cytotoxicity bioassay after overnight digestion | proteolytic activity towards TNFα and effect in the L929 bioassay |
| --- | --- | --- |
| ADAM 10 | ADAM 10 (column: Proteases that did not inactivate TNF) | – |
| Enterokinase | Enterokinase (column: Proteases that did not inactivate TNF) | enterokinase has no proteolytic activity towards TNFα and no effect in the L929 bioassay |
| Furin | Furin (column: Proteases that did not inactivate TNF) | – |
| Kallikrein5 | Kallikrein5 (column: Proteases that did not inactivate TNF) | – |
| MMP3 | MMP3 (column: Proteases that did not inactivate TNF) | – |
| MT5-MMP | MT5-MMP (column: Proteases that did not inactivate TNF) | – |
| Plasmin | Plasmin (column: Proteases that did not inactivate TNF) | – |
| Urokinase | Urokinase (column: Proteases that did not inactivate TNF) | – |
